In article PMC5750232, “RAD54 N-terminal domain is a DNA sensor that couples ATP hydrolysis with branch migration of Holliday junctions” (Nature Communications, 2018):

What was measured:
RAD54 156-747 [1] = molecular target: T1, RAD54 156-747 (human, UniProt Q92698 156-747); test: competition EMSA; details: vs 30 nM 32P-PX junction, 100 nM protein, 5 mM Mg2+, 2 mM ATP, 25 mM Tris-acetate pH 7.5, 5 mM Mg acetate, 100 ug/ml BSA, 2 mM DTT, 10% glycerol, 4 C, 45 min, 30 nM PX junction, 6% native PAGE in 0.25x TBE, scale: fold excess of competitor giving 50% dissociation of PX complexes
T1 sequence: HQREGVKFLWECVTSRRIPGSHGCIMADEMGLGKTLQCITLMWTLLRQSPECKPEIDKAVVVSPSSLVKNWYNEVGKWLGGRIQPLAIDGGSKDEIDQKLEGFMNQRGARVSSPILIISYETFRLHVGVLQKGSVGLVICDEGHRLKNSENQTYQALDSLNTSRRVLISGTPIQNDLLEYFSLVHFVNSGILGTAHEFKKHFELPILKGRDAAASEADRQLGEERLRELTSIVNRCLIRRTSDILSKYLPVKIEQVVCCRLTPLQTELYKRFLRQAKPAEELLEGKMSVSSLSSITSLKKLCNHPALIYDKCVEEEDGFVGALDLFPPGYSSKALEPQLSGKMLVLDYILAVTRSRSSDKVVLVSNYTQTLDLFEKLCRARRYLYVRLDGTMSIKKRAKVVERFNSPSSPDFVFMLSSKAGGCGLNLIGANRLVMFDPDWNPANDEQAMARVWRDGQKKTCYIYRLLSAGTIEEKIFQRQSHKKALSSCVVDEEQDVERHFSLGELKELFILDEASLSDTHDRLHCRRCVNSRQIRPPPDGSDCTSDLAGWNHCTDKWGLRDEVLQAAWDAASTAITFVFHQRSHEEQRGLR

RAD54 1-142 (NTD) [2] = molecular target: T2, RAD54 1-142 (NTD) (human, UniProt Q92698 1-142); test: competition EMSA; details: vs 30 nM 32P-PX junction, 300 nM protein, 5 mM Mg2+, 2 mM ATP, 25 mM Tris-acetate pH 7.5, 5 mM Mg acetate, 100 ug/ml BSA, 2 mM DTT, 10% glycerol, 4 C, 45 min, 30 nM PX junction, 6% native PAGE in 0.25x TBE, scale: fold excess, PX complexes stable at 150-200-fold excess of ss- or dsDNA
T2 sequence: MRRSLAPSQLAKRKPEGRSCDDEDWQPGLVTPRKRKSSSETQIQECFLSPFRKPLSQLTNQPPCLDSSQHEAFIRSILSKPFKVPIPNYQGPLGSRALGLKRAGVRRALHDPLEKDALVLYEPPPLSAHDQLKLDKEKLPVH

[3] = molecular target: the molecule itself; test: cross-linking; BMH (25 µM) cross-linking of the protein (1.2 µM) without DNA; 20 mM HEPES-KOH pH 7.5, 5 mM MgCl2, 5 mM EDTA, 40 mM KCl, 25 °C; 15% SDS-PAGE, silver staining
RAD54 1-142 (NTD) [4] = molecular target: T2, RAD54 1-142 (NTD); test: competition EMSA; vs 30 nM 32P-PX junction; 300 nM protein; 5 mM Mg2+, 2 mM ATP; 25 mM Tris-acetate pH 7.5, 5 mM Mg acetate, 100 ug/ml BSA, 2 mM DTT, 2 mM ATP, 10% glycerol, 4 C, 45 min; 30 nM PX junction; 6% native PAGE in 0.25x TBE; details: protein: recombinant; tags: Sumo-His, cleaved; four-way junction, 4 strands
RAD54 156-747 [5] = molecular target: T1, RAD54 156-747; test: EMSA; 100 nM protein; 5 mM Mg2+, 2 mM ATP; 25 mM Tris-acetate pH 7.5, 5 mM Mg acetate, 100 ug/ml BSA, 2 mM DTT, 2 mM ATP, 10% glycerol, 4 C, 45 min; 30 nM PX junction; 6% native PAGE in 0.25x TBE; details: protein: recombinant; tags: Sumo-His, cleaved; partial X junction with one ssDNA arm, 4 strands
RAD54 1-142 (NTD) [6] = molecular target: T2, RAD54 1-142 (NTD); test: EMSA; distinct complexes from 0.1 uM protein; 5 mM Mg2+, 2 mM ATP; 25 mM Tris-acetate pH 7.5, 5 mM Mg acetate, 100 ug/ml BSA, 2 mM DTT, 2 mM ATP, 10% glycerol, 4 C, 45 min; 30 nM PX junction; 6% native PAGE in 0.25x TBE; details: protein: recombinant; tags: Sumo-His, cleaved; partial X junction with one ssDNA arm, 4 strands

For ssDNA (oligo 2), the binding signal (RAD54 156-747 [1]) was 4 and the binding signal (RAD54 1-142 (NTD) [2]) was over 150.

For dsDNA (oligos 1/2), the binding signal (RAD54 1-142 (NTD) [2]) was over 150.

B1: RAD54_(1–142) NTD (domain or fragment, human, UniProt Q92698 1-142, looked up)
chain: MRRSLAPSQLAKRKPEGRSCDDEDWQPGLVTPRKRKSSSETQIQECFLSPFRKPLSQLTNQPPCLDSSQHEAFIRSILSKPFKVPIPNYQGPLGSRALGLKRAGVRRALHDPLEKDALVLYEPPPLSAHDQLKLDKEKLPVH
notes: cloned in pETHSUL; Sumo-His tag cleaved off by Sumo hydrolase; also called RAD54 NTD; source: E. coli Rosetta 2 (DE3), purified (HiTrap Ni2+, Sephacryl S-200 HR, Resource S)
In the case of B1, the “stoichiometry N” value [3] is reported as 2.

B2: RAD54_(1–142) ^S49E (domain or fragment, human, UniProt Q92698 1-142, looked up)
chain: MRRSLAPSQLAKRKPEGRSCDDEDWQPGLVTPRKRKSSSETQIQECFLEPFRKPLSQLTNQPPCLDSSQHEAFIRSILSKPFKVPIPNYQGPLGSRALGLKRAGVRRALHDPLEKDALVLYEPPPLSAHDQLKLDKEKLPVH
notes: source: E. coli Rosetta 2 (DE3), purified (HiTrap Ni2+, Sephacryl S-200 HR, Resource S)
With B2 the “stoichiometry N” value [3] was 2.

B3: RAD54_(1–142) ^33AAAA36 (domain or fragment, human, UniProt Q92698 1-142, looked up)
chain: MRRSLAPSQLAKRKPEGRSCDDEDWQPGLVTPAAAASSSETQIQECFLSPFRKPLSQLTNQPPCLDSSQHEAFIRSILSKPFKVPIPNYQGPLGSRALGLKRAGVRRALHDPLEKDALVLYEPPPLSAHDQLKLDKEKLPVH
notes: as for B2
B3 was tested, and the “stoichiometry N” value [3] was 2.

B4: X-junction (174/175/176/177) (structured_DNA)
DNA 1: GACGCTGCCGAATTCTACCAGTGCCTTGCTAGGACATCTTTGCCCACCTGCAGGTTCACCC
DNA 2: TGGGTGAACCTGCAGGTGGGCAAAGATGTCCTAGCAATGTAATCGTCAAGCTTTATGCCGTT
DNA 3: CAACGGCATAAAGCTTGACGATTACATTGCTAGGACATGCTGTCTAGAGGATCCGACTATCGA
DNA 4: ATCGATAGTCGGATCCTCTAGACAGCATGTCCTAGCAAGGCACTGGTAGAATTCGGCAGCGT
For B4, the binding signal (RAD54 1-142 (NTD) [4]) was ~6 fold preference for PX junction over HJ (X-junction).

B5: non-mobile PX junction (174/175/176/181) (structured_DNA)
DNA 1: GACGCTGCCGAATTCTACCAGTGCCTTGCTAGGACATCTTTGCCCACCTGCAGGTTCACCC
DNA 2: TGGGTGAACCTGCAGGTGGGCAAAGATGTCCTAGCAATGTAATCGTCAAGCTTTATGCCGTT
DNA 3: CAACGGCATAAAGCTTGACGATTACATTGCTAGGACATGCTGTCTAGAGGATCCGACTATCGA
DNA 4: TCGATAGTCGGATCCTCTAGACAGC
B5: binds (RAD54 156-747 [5]); binds (RAD54 1-142 (NTD) [6]).
